# According to article PMC8591539:
# Tests used:
# [1] = biological target: CRL4^DCAF1 (FL) (CUL4A-RBX1-DDB1-DCAF1), unneddylated (human) (UniProt Q13619); test: SEC-MALS
# [2] = biological target: CRL4^DCAF1 (FL) (CUL4A-RBX1-DDB1-DCAF1), unneddylated (human) (UniProt Q13619); test: cryo-EM structure
# [3] = biological target: CRL4^DCAF1 (FL) (R1247A) mutant (human) (UniProt Q13619); test: SEC-MALS
# [4] = biological target: CRL4^DCAF1 (FL)-VPR complex (human | HIV-1) (UniProt Q13619); test: SEC-MALS
# [5] = biological target: CRL4^DCAF1 (FL)-VPR-UNG2 complex (human | HIV-1 | not stated) (UniProt Q13619); test: SEC-MALS
# [6] = biological target: CRL4^DCAF1(FL)-MERLIN complex (UniProt Q13619); test: SEC-MALS
# [7] = biological target: DDB1-DCAF1 (FL) sub-complex (human) (UniProt Q16531); test: SEC-MALS
# Chain of CRL4^DCAF1 (FL) (CUL4A-RBX1-DDB1-DCAF1), unneddylated (Q13619 whole entry): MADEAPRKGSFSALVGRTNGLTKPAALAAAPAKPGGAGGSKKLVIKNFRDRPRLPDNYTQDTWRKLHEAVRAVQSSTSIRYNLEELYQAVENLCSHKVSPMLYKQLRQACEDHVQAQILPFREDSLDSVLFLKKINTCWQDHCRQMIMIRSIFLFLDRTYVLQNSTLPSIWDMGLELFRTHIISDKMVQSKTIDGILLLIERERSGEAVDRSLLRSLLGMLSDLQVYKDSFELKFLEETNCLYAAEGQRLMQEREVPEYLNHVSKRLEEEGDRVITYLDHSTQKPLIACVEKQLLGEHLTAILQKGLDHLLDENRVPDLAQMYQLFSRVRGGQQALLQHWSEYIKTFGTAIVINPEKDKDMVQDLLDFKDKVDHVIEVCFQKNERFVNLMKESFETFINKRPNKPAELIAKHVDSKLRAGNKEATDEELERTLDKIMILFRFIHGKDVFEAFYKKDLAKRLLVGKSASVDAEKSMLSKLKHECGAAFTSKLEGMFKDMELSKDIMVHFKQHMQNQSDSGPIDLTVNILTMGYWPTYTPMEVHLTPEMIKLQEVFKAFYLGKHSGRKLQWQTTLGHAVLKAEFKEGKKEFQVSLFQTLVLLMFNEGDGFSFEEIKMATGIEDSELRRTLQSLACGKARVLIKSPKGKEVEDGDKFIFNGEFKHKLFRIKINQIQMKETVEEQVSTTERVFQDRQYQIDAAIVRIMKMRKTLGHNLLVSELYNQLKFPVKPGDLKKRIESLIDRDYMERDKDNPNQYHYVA
# Chain of CRL4^DCAF1 (FL) (CUL4A-RBX1-DDB1-DCAF1), unneddylated (P62877 whole entry): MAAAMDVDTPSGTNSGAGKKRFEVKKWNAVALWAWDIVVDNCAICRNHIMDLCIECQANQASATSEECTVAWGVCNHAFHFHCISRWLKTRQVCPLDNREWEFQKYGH
# Chain of CRL4^DCAF1 (FL) (CUL4A-RBX1-DDB1-DCAF1), unneddylated (Q16531 whole entry): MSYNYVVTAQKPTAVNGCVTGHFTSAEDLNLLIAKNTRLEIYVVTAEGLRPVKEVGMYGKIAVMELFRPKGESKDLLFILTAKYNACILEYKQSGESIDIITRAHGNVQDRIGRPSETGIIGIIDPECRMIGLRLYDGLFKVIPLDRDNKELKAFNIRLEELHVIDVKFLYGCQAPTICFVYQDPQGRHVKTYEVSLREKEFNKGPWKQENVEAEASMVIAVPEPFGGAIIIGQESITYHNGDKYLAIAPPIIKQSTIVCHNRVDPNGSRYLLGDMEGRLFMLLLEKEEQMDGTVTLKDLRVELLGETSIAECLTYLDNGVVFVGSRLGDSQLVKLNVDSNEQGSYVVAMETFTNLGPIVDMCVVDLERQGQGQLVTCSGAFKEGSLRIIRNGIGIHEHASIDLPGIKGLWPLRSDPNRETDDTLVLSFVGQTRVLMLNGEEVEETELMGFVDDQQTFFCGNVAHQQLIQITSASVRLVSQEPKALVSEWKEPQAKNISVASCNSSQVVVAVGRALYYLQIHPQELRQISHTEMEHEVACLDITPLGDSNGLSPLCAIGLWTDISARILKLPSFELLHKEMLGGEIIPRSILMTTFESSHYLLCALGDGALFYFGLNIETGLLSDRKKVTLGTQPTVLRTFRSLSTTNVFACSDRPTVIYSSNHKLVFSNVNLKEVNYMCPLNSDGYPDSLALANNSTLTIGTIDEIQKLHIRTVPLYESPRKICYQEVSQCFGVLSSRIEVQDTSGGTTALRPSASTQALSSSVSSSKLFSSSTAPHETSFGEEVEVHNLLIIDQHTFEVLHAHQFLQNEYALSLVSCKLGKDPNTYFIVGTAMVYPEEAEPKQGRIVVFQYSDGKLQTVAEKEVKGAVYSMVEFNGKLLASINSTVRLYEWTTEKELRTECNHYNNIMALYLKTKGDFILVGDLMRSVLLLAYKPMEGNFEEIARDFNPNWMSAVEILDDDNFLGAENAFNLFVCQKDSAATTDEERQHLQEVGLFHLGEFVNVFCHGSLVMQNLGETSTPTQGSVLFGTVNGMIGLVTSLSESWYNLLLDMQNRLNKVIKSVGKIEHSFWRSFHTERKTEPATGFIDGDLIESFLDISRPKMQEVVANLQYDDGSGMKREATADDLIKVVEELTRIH
# Chain of CRL4^DCAF1 (FL) (CUL4A-RBX1-DDB1-DCAF1), unneddylated (Q9Y4B6 whole entry): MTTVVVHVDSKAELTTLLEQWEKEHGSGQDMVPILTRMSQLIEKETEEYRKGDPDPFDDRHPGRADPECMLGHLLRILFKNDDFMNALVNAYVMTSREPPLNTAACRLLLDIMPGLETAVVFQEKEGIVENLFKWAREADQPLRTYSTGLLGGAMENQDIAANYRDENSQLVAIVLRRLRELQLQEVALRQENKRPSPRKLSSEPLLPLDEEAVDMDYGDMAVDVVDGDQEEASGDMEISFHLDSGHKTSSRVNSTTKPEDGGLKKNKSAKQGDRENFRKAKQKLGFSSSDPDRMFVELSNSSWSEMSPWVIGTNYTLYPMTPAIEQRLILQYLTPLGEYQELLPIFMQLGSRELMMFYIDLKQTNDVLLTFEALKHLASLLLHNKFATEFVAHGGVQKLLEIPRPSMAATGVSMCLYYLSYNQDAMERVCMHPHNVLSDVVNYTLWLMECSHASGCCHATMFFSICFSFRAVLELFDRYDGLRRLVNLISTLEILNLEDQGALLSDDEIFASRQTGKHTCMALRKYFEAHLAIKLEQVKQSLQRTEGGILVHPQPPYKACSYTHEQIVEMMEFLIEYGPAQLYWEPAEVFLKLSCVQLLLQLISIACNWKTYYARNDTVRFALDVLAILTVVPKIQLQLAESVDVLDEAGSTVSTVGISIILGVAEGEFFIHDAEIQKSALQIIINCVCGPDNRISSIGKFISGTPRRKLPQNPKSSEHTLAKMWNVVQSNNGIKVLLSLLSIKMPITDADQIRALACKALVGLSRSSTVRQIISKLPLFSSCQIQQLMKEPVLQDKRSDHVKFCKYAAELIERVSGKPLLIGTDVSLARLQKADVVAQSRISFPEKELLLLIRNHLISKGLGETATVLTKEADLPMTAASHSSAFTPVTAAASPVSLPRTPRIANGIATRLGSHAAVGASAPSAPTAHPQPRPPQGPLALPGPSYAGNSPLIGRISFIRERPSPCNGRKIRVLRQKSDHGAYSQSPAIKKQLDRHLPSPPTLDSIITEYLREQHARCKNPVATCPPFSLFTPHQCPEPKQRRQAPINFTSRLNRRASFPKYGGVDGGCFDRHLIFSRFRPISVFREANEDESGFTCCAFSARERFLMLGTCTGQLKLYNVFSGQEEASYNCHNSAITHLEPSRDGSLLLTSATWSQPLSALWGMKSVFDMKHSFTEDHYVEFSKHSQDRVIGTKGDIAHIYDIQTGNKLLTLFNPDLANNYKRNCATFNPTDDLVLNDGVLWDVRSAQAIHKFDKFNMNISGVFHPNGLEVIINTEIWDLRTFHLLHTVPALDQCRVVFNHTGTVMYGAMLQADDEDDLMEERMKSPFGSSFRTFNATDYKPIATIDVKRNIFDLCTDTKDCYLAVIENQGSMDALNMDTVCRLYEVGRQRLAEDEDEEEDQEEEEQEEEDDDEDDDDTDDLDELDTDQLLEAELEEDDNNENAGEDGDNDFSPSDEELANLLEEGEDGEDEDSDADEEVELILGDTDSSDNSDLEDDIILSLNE
substance,measurement,setting,value
"CRL4^DCAF1 (FL) (CUL4A-RBX1-DDB1-DCAF1), unneddylated (from UniProt Q13619;P62877;Q16531;Q9Y4B6) (complex)",stoichiometry N,[1],4
same,stoichiometry N,[2],4
CRL4^DCAF1 (FL) (R1247A) mutant (from UniProt Q13619;P62877;Q16531;Q9Y4B6) (complex),stoichiometry N,[3],2
CRL4^DCAF1 (FL)-VPR complex (from UniProt Q13619;P62877;Q16531;Q9Y4B6;P12520),stoichiometry N,[4],4
CRL4^DCAF1 (FL)-VPR-UNG2 complex (from UniProt Q13619;P62877;Q16531;Q9Y4B6;P12520;P13051-1),stoichiometry N,[5],2
CRL4^DCAF1(FL)-MERLIN complex (from UniProt Q13619;P62877;Q16531;Q9Y4B6;P35240),stoichiometry N,[6],4
DDB1-DCAF1 (FL) sub-complex (from UniProt Q16531;Q9Y4B6),stoichiometry N,[7],2
